Experimental findings from US20190077860A1 (EISAI R AND D MANAGEMENT, published 2019) are described below.

Test [1] concerns the target T1, mouse EphA4 extracellular region-SEAP-His protein (mouse). Nature of the test: SPR (Biacore T200), EphA4-SEAP-His captured by anti-His antibody; Fab (monovalent), not F(ab')2. As to the method:
(§1) Next, the binding affinity of antibody A-Fab and antibody A-F(ab′)₂ for mouse and human EphA4 was determined by surface plasmon resonance (SPR) using Biacore T200 (GE Healthcare). Antibody A obtained in Example 1 was used as a control for the comparison of each fragment. First, an anti-His tag antibody was immobilized on sensor chip CM5. The immobilization of the anti-His tag antibody on sensor chip CM5 was performed by the amine coupling method using N-hydroxysuccinimide (NHS) and N-ethyl-N′-(3-dimethylaminopropyl)carbodiimide hydrochloride (EDC). Ethanolamine was used in blocking (the sensor chip and the reagents for immobilization were all manufactured by GE Healthcare). The antibody was diluted with a buffer solution for immobilization (10 mM sodium acetate, pH 4.5) into 3 μg/mL and immobilized on the sensor chip according to the protocol attached to Biacore T200.
(§2) Mouse or human EphA4 extracellular region-SEAP-His protein was diluted with a running buffer solution HBS-EP (GE Healthcare, BR-1001-88), injected onto a flow cell for 120 seconds, and captured (amount of the protein captured: approximately 10 to 20 RU). Subsequently, antibody A (50, 16.7, 5.6, 1.9, 0.6, and 0 nM), antibody A-Fab (500, 166.7, 55.6, 18.5, 6.2, and 0 nM), or antibody A-F(ab′)₂ (50, 16.7, 5.6, 1.9, 0.6, and 0 nM) serially diluted using HBS-EP was added to the sensor chip for 120 seconds. […]

The target in test [2] is T2, human EphA4 extracellular region-SEAP-His protein (human, UniProt P54764 20-547).
T2 construct: also called hEphA4-SEAP-His
The description is as above. As to the method:
as §1, §2

Test [3] concerns the target T2, human EphA4 extracellular …. Nature of the test: SPR (Biacore T200), human EphA4 extracellular region-SEAP-His captured on an anti-His antibody CM5 chip, Fab as analyte at 6.2-500 nM, 1:1 fit. How it is done:
as §1, §2
For orientation: Surface plasmon resonance follows binding to a sensor surface in real time, without labels.

Test [4] concerns the target T1, mouse EphA4 extracellular …. Nature of the test: competition ELISA, competitor biotinylated mouse Ephrin B2-Fc. How it is done: Antibody A-Fab and antibody A-F(ab′)₂ obtained in Example 5 were evaluated for their inhibitory activity against the binding between EphA4 and its ligand according to the following steps. Each well of a 96-well plate (Nunc) was coated with an anti-alkaline phosphatase antibody (Thermo Fisher Scientific). After incubation overnight at 4° C., each well was blocked with 1% BlockAce (DS Pharma Biomedical) at room temperature for 1 hour. After washing with 0.05% Tween 20/PBS (Thermo Fisher Scientific) three times, the mouse EphA4 extracellular region-SEAP-His protein obtained by the method of Example 1 was added (final concentration: 10 nM) to each well and incubated at room temperature for 1 hour. After washing three times, a ligand and serially diluted antibody A (0, 0.003, 0.01, 0.03, 0.1, 0.3, 1, 3, 10, 30, 100, 300, 1000, and 3000 nM), antibody A-Fab (0, 0.003, 0.01, 0.03, 0.1, 0.3, 1, 3, 10, 30, 100, 300, 1000, and 3000 nM), antibody A-F(ab′)₂ (0, 0.003, 0.01, 0.03, 0.1, 0.3, 1, 3, 10, 30, 100, 300, 1000, and 3000 nM), or the EphA4 inhibitor KYL peptide ([…], 0, 0.0003, 0.001, 0.003, 0.01, 0.03, 0.1, 0.3, 1, 3, 10, 30, 100, 300, 1000, and 3000 μM, its synthesis was outsourced to Toray Research Center) were added to each well. The ligand used was biotinylated mouse Ephrin B2-Fc chimera (R&D Systems, final concentration: 2.5 nM). After incubation at room temperature for 1 hour and subsequent washing three times, horseradish peroxidase-labeled streptavidin (GE Healthcare) was added thereto and incubated at room temperature for 1 hour. After washing three times, a TMBZ (3,3′,5,5′-tetramethylbenzidine, Sigma-Aldrich) solution was added to each well and incubated at room temperature for 2 minutes. An equal amount of a reaction stopping solution (1N H₂SO₄, Wako Pure Chemical Industries) was added to each well. The absorbance at 450 nm was read using a microplate reader (Molecular Devices or PerkinElmer).
Antibody A and antibody A-F(ab′)₂ had 1000 or more times the activity of the KYL peptide, and antibody A-Fab also had 10 or more times the activity of KYL peptide.
In general terms: ELISA stands for enzyme-linked immunosorbent assay.

Test [5] shares this target. Nature of the test: SPR (Biacore T200), mouse EphA4 extracellular region-SEAP-His captured on an anti-His antibody CM5 chip, Fab as analyte at 6.2-500 nM, 1:1 fit. As to the method: as §1, §2
Test [6] concerns the target T2, human EphA4 extracellular …. Nature of the test: competition ELISA: human EphA4 extracellular region-SEAP-His captured on the plate, blocked ligand biotinylated human Ephrin B3-Fc chimera (2.3 nM). How it is done:
(§3) Antibody A obtained in Example 1 was evaluated for its inhibitory activity against the binding between human EphA4 and its human ligand according to the following steps. Each well of a 96-well plate (Nunc) was coated with an anti-alkaline phosphatase antibody (Thermo Fisher Scientific). After incubation overnight at 4° C., each well was blocked with 1% BlockAce (DS Pharma Biomedical) at room temperature for 1 hour. After washing with 0.05% Tween 20/PBS (Thermo Fisher Scientific) three times, the human EphA4 extracellular region-SEAP-His protein obtained by the method of Example 1 was added (final concentration: 10 nM) to each well and incubated at room temperature for 1 hour. After washing three times, ligands and serially diluted antibody A (0, 0.003, 0.01, 0.03, 0.1, 0.3, 1, 3, 10, 30, 100, 300, 1000, and 3000 nM) or an EphA4 inhibitor KYL peptide ([…], 0, 0.003, 0.01, 0.03, 0.1, 0.3, 1, 3, 10, 30, 100, 300, 1000, and 3000 μM, its synthesis was outsourced to Toray Research Center) were added to each well. The ligands used were biotinylated human Ephrin A5-Fc chimera (R&D Systems, final concentration: 0.7 nM) and biotinylated human Ephrin B3-Fc chimera (R&D Systems, final concentration: 2.3 nM). […] The absorbance at 450 nm was read using a microplate reader (Molecular Devices or PerkinElmer). […]

The target of test [7] is T1, mouse EphA4 extracellular …. Nature of the test: competition ELISA: mouse EphA4 extracellular region-SEAP-His captured on the plate, blocked ligand mouse Ephrin B2-Fc chimera (0.6 nM). As to the method: (§4) Antibody A obtained in Example 1 was evaluated for its inhibitory activity against the binding between mouse EphA4 and its mouse ligand according to the following steps. Each well of a 96-well plate (Nunc) was coated with an anti-alkaline phosphatase antibody (Thermo Fisher Scientific). After incubation overnight at 4° C., each well was blocked with 1% BlockAce (DS Pharma Biomedical) at room temperature for 1 hour. After washing with 0.05% Tween 20/PBS (Thermo Fisher Scientific) three times, the mouse EphA4 extracellular region-SEAP-His protein obtained by the method of Example 1 was added (final concentration: 10 nM) to each well and incubated at room temperature for 1 hour. After washing three times, ligands and serially diluted antibody A (0, 0.001, 0.003, 0.01, 0.03, 0.1, 0.3, 1,3, 10, 30, 100, 300, and 1000 nM) or a known EphA4 inhibitor KYL peptide ([…], 0, 0.003, 0.01, 0.03, 0.1, 0.3, 1, 3, 10, 30, and 100 μM, its synthesis was outsourced to Hokkaido System Science) or compound 1 (0, 0.03, 0.1, 0.3, 1,3, 10, 30, 100, 300, and 1000 μM, Formula 1, Matrix Scientific) were added to each well. The ligands used were mouse Ephrin A1-Fc chimera (R&D Systems, final concentration: 20 nM) and mouse Ephrin B2-Fc chimera (R&D Systems, final concentration: 0.6 nM). […] The absorbance at 450 nm was read using a microplate reader (Molecular Devices).

Test [8] has as its target T2, human EphA4 extracellular …. Nature of the test: competition ELISA, competitor human Ephrin A5-Fc. How it is done:
as §3

Test [9] has the same target. Nature of the test: competition ELISA: human EphA4 extracellular region-SEAP-His captured on the plate, blocked ligand biotinylated human Ephrin A5-Fc chimera (0.7 nM). How it is done:
as §3

Test [10] has the same target. Nature of the test: competition ELISA, competitor human Ephrin B3-Fc. As to the method:
as §3

Test [11] addresses rat EphA4 in rat hippocampal neurons (rat, UniProt D3ZZK3 20-986). Nature of the test: cell-based or functional assay.
Test [12] concerns the target T1, mouse EphA4 extracellular …. Nature of the test: competition ELISA: mouse EphA4 extracellular region-SEAP-His captured on the plate, blocked ligand mouse Ephrin A1-Fc chimera (20 nM). How it is done:
as §4

For test [13] the target is unchanged. Nature of the test: competition ELISA, competitor mouse Ephrin B2-Fc. How it is done:
as §4

T1 sequence (chain, as listed by the source limits assumed): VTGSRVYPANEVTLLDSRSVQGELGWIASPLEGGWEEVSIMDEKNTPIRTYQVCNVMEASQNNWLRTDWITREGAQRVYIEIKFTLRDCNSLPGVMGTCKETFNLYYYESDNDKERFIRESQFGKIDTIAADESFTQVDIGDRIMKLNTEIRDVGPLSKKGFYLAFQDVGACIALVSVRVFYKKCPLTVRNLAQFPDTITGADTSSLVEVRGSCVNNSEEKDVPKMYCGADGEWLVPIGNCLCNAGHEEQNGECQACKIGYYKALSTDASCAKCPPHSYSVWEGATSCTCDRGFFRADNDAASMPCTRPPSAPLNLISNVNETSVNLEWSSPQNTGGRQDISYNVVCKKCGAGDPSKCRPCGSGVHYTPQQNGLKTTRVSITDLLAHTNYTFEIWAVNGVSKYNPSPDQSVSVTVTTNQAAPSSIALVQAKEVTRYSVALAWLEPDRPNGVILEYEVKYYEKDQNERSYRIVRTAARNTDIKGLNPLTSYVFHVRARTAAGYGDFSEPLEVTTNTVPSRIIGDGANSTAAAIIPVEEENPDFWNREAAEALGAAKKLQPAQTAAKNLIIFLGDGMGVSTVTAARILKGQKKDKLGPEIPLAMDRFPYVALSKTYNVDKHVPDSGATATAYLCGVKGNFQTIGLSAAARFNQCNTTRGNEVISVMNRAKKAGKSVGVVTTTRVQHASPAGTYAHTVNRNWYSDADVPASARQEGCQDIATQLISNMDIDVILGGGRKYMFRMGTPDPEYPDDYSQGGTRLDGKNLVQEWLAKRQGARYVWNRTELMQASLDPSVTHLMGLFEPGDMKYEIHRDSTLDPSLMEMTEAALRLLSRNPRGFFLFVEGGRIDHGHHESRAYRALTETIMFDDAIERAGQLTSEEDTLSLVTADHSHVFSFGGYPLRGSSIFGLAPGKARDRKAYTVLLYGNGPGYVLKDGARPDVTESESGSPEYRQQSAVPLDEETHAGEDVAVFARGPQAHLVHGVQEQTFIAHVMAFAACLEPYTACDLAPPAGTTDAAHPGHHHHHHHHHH
T2 sequence (P54764 20-547): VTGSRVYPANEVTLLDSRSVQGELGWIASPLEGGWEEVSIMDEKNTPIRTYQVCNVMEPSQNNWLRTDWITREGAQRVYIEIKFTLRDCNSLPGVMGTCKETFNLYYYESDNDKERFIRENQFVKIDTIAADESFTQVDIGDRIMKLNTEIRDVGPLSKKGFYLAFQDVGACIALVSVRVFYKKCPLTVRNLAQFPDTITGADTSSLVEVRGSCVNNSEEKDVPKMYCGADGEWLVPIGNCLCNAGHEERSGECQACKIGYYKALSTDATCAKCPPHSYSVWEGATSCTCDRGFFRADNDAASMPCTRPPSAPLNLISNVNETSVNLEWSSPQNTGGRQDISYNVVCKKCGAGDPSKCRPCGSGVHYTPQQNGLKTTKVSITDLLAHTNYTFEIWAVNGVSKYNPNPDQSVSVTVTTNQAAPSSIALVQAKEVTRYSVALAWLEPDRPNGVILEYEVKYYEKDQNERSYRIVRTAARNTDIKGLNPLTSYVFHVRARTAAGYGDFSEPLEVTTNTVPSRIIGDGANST

B1: antibody A-Fab (Fab, V domains shown, not shown: a dimerising Fc or GST)
VH: QIQLVQSGPELKKPGETVKISCKASGYTFTDYSMHWVKQAPGKGLKWMGWINTETGEPTYADDFKGRFAFSLETSASTAYLQINNLKNEDTATYFCARIPLYYYGSRYWYFDVWGAGTTVTVSS
VL: DIQMTQSPASLSVSVGETVTITCRASENIYRNLAWYQQKQGKSPQLLVYAATNLADGVPSRFSGSGSGTQYSLKINSLQSEDFGSYYCQHFWGTPWTFGGGTKLEIKR
notes: made by papain digestion of antibody A; also called Fab fragment of antibody A
On to B1, for which the Kd was 45.1 nM in [1] and 40.4 nM in test [2]. The koff in [3] was 0.0373 s⁻¹; in [5] it was 0.042 s⁻¹. Also, the kon in [3] is 921000 M⁻¹ s⁻¹; in test [5], 931000 M⁻¹ s⁻¹. The IC50 in test [4] was determined as 438 nM. For the same molecule, in test [4], the “fold activity against KYL peptide” value was no less than 10 fold.

Regarding KYLPYWPVLSSL (synthetic peptide) [KYL peptide], the IC50 in [6] was 1570 nM; in test [7], 1310 nM; in test [8], roughly 6100 nM; in [9] it was 6120 nM; in test [10], roughly 1600 nM; in test [12], 1290 nM. The values for the IC50 in [13] and in [4] were roughly 1300 nM and 5290 nM, respectively. Besides, the “IC50 of suppression of EphA4 autophosphorylation induced by mouse EphrinA1 in the hippocampal neurons” value in [11] was found to be 9910 nM.

As usually defined, the Kd is the free concentration of one partner at which half of the binding sites on the other are occupied at equilibrium, for simple one-to-one binding. A high value points to a looser complex. A word on the koff: it is a measure of how fast the partners let go of each other. A low value points to a long-lived complex. Usually kon stands for the second-order rate constant of association. The low end stands for slow association, the high end for fast association. Broadly, the IC50 is the concentration at which inhibition is half-maximal. A high value points to weaker potency in that assay.
